Columns and labels:
[1] = target: human CD112R on CHO-CD112R cells (human) (UniProt Q6DKI7); assay: FACS binding to CHO-CD112R cells, MFI-APC, ambiguous fit of the negative control; unit from the axis
[2] = target: human CD112R on CHO-CD112R cells (human) (UniProt Q6DKI7); assay: FACS binding to CHO-CD112R cells, MFI-APC, fit of the negative control; unit from the axis

human CD112R on CHO-CD112R cells (human), sequence (Q6DKI7 41-326 limits assumed): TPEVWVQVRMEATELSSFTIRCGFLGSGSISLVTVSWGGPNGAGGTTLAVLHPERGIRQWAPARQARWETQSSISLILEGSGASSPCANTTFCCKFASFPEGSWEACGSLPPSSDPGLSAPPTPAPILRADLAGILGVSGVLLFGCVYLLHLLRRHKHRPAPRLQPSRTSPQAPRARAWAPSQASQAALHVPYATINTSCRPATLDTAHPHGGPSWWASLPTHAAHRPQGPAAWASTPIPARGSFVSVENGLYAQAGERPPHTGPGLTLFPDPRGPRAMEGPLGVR

- EC50 [1]: 4050 µg/mL
- EC50 [2]: 26.3 µg/mL
Substance: anti-KLH hu-IgG4 antibody

Source: patent US20240309087A1
